In assay [1] the target is fusin/CXCR4 receptor (UniProt P61073). Briefly: flow cytometry, fluorescently labeled 12G5 on untreated U937 cells.
Assay [2] shares this target. Kind of assay: flow cytometry on U937 cells, background subtracted from the 12G5 data. Background: Flow cytometry measures light scatter and fluorescence of single cells or particles in a stream.

Results on 2 substances are retold here after patent US20050020528A1.

Chain of UniProt P61073 (P61073 whole entry): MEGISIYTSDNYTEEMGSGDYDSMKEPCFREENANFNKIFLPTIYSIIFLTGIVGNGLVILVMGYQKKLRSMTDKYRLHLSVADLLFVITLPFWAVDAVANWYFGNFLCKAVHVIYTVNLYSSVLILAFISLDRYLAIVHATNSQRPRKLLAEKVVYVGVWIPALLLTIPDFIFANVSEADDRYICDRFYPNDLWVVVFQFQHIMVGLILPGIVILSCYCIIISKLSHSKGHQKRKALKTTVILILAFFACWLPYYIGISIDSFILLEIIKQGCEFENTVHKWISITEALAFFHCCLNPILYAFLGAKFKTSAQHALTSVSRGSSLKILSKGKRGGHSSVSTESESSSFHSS

Take “anti-fusin/CXCR4 12G5 monoclonal antibody”: in the assay with fusin/CXCR4 receptor [1], the Median Fluorescence (net of isotype control) stood at 23.2.

Turning to isotype control (antibody), the median fluorescence with fusin/CXCR4 receptor [2] is 3.6.
